Several values for one entry are separate records, joined by “and”; a condition that tells them apart may be missing. Equal entries are not always repeated.
B1: GcdC1, biotin carrier subunit of glutaconyl-CoA decarboxylase (Gcd) from Clostridium symbiosum (natural protein, UniProt B7TVP4 1-149, looked up)
chain: MKYIATINGKRYEVEVERVEGYKSLDRNGVAAPKAPALASTAPVQRPAAPAPAAPAPAAAPAPAAAPAPVAAPAPAAAGATTVEAPMPGKVLDVKVTAGQVVKYGDVVAIMEAMKMETEIVAPADGTVSQILVKAGDPVDTGAAMVVLN
modifications: biotin covalently bound (C-terminal region)
notes: GcdC1, biotin carrier subunit of glutaconyl-CoA decarboxylase, Clostridium symbiosum, 15 kDa; N-terminal region of 30 amino acids, AP region of 48, C-terminal region of 71; Surmised: its biotin is what the monomeric avidin column holds
B2: GcdC2, biotin carrier subunit of glutaconyl-CoA decarboxylase (Gcd) from Clostridium symbiosum (natural protein, UniProt B7TVP3 1-139, looked up)
chain: MKYTATLNGKQYDVELERIGEYEPIPRYGEAAPAPAAPITAPAAAPAPVAAAPAPAPAPAAPAPAPAAGGTTVEAPMPGKVLDVKVAAGQAVKFGQVVITMEAMKMETEIVAPADGTVAQILVKAGDAVETGTAMVVLN
modifications: biotin covalently bound (C-terminal region)
notes: GcdC2, biotin carrier subunit of glutaconyl-CoA decarboxylase, Clostridium symbiosum, 14 kDa; N-terminal region of 30 amino acids, AP region of 39, C-terminal region of 70; Surmised: its biotin is what the monomeric avidin column holds
B4: GcdA, subunit of glutaconyl-CoA decarboxylase (Gcd) from Clostridium symbiosum (enzyme, UniProt B7TVP1 1-588, looked up)
chain: MNMYSMPGYFQNMPTIGKELVNPNPENEQEIKAVESDIHESIKKALDAGITSEEKLNERGQLSAMQRINALIDPGTWCPLNSLFNPENNKFGTTNIVNGLGRVDGKWVYIVASDNKKMAGAWVPGQAENLIRCSDAAKMMHLPLIYLLNCSGVEFPNQDKVYPNRRGGGTPFFRNSELNQLGIPVIVGIYGTNPAGGGYHSISPTILIAHQDANMAVGGAGILSGMNPKGYIDDEAAEQIIAAQIENSKLKVPAPGSVPIHYDETGFFREVYQNDLGVIDGIKKYISYLPAYNLEFFRVDTPKAPQLPAEDLYSIIPMNQKRPYDIYEVIARLFDNSEFSEYKKGYGPEMVTGLAKVNGLLVGVIANVQGLLMNYPEYKQNSVGIGGKLYRQGLIKMNEFVTLCARDRIPLIWLQDTTGIDVGDEAEKAELLGLGQSLIYSIENSKLPSLEITIRKASAAAHYVLGGPQGNNTNVFSIGTGACEYYVMPGETAANAMYSRKLVKAKKAGEDLQPIIGKMNDMIQMYTDKSRPKYCTEKGMVDEIVDMTEVRPYIQAFTEAAYQNPQSICPMHQMLTPRSTREFETFGK
notes: GcdA, hydrophilic carboxyltransferase subunit of glutaconyl-CoA decarboxylase, Clostridium symbiosum, 65 kDa; For LILBID-MS (soft mode) and EM the complex was cross-linked with glutaraldehyde (GraFix)

What was measured:
[1] = molecular target: T1, Gcd (glutaconyl-CoA decarboxylase) from Clostridium symbiosum ([Clostridium] symbiosum, UniProt B7TVP1); assay: coupled spectrophotometric assay of crotonyl-CoA formation, […] nm; type: biochemical; details: decarboxylation to crotonyl-CoA; biotin-dependent, biotin covalently bound to GcdC1/GcdC2; DDM-solubilized enzyme
T1 construct: gene gcdA

[2] = molecular target: B4; assay: affinity purification with mass spectrometry; Gcd solubilized from C. symbiosum membranes with 2% DDM in buffer A (50 mM phosphate pH 7.0, 400 mM NaCl, 0.05% DDM), loaded on monomeric avidin agarose, eluted with a biotin step gradient (0-2 mM); bands of SDS-PAGE identified by MALDI-TOF MS; details: partners not purified
[3] = molecular target: B4; assay: native MS; LILBID-MS, soft detection mode (14 mJ laser power); 3-7 uM glutaraldehyde-fixed and unconcentrated Gcd complex in 50 mM Tris-HCl pH 7.0, 0.05% DDM, 200 mM NaCl; details: both partners purified
[4] = molecular target: B1; assay: as above; details: both partners purified
[5] = molecular target: B2; assay: as above; details: both partners purified
[6] = molecular target: B1; assay: affinity purification with mass spectrometry; Gcd solubilized from C. symbiosum membranes with 2% DDM in buffer A (50 mM phosphate pH 7.0, 400 mM NaCl, 0.05% DDM), loaded on monomeric avidin agarose, eluted with a biotin step gradient (0-2 mM); bands of SDS-PAGE identified by MALDI-TOF MS; details: partners not purified
[7] = molecular target: the molecule itself; assay: negative-stain electron microscopy, 3D reconstruction; glutaraldehyde-fixed Gcd (50-80 nM) at 200 mM NaCl, stained with 2% uranyl formate; 2D classification and low-resolution 3D map (cisTEM, RELION-3.0)
[8] = molecular target: the molecule itself; assay: native MS; LILBID-MS, soft detection mode (14 mJ laser power); 3-7 uM glutaraldehyde-fixed and unconcentrated Gcd complex in 50 mM Tris-HCl pH 7.0, 0.05% DDM, 200 mM NaCl

In the case of CC(C)(COP(=O)(O)OP(=O)(O)OC[C@H]1O[C@@H](n2cnc3c(N)ncnc32)[C@H](O)[C@@H]1OP(=O)(O)O)[C@@H](O)C(=O)NCCC(=O)NCCSC(=O)/C=C/CC(=O)O [glutaconyl-CoA], the “coupled spectrophotometric assay of crotonyl-CoA formation, 340 nm” value [1] is reported as “Purified Gcd was enzymatically active with respect to crotonyl-CoA formation”.

B1: binds [2].

B2: binds [3]; binds [4].

B3: GcdD, small subunit of glutaconyl-CoA decarboxylase (Gcd) from Clostridium symbiosum (natural protein, UniProt B7TVP2 1-95, looked up)
chain: MWTEATMPFGQSVIVSLLGISVVFITLVTLALAIVLISKILRSIIKDGAQKPAPAAAPVVSDEADKETLAVLMATIGMDLELPADQFKIVNVKEL
notes: GcdD, small subunit of glutaconyl-CoA decarboxylase, Clostridium symbiosum, 10 kDa; N-terminal transmembrane helix (13-37), AP-rich region (51-60), C-terminal region (61-95)
B3: binds [5]; binds [6].

B4 was tested, and the “stoichiometry N” value [7] was ~4 and the “stoichiometry N” value [8] was 4 and 2.

B5: GcdB, subunit of glutaconyl-CoA decarboxylase (Gcd) from Clostridium symbiosum (enzyme, UniProt B7TVP5 1-379, looked up)
chain: MNFFEIMGEMLAQSGFTALTWKNLVMFAISFVLLYMAIKKQYEPLLLLPIAFGMFLANLPLADLMKESEPWYTQGVLRIMYGGVKSSLFPCLIFLCVGAMTDFGPLIANPISLLLGAAAQFGIYIAFMLANATGLFTVGEAAAIGIIGGADGPTAIYIANNLAPDLVAPIAVAAYSYMALIPMIQPPIMKLLTTKKERAIVMKQLRKVSKVEKVVFPVFVVLFCSLLLPSVAPLLGMLMLGNLFRESGVVERLSDTAQNALCNIVTIMLGTTVGATANGDIFLRVQTIAIIAMGLMAFCFSTVGGVLLGKLLCVVTGGKINPLIGSAGVSAVPMAARVSQTVGSKENPTNFLLMHAMGPNVAGVIGSAVAAGFFMLIFK
notes: GcdB, membrane-spanning subunit (11 putative transmembrane helices) of glutaconyl-CoA decarboxylase, Clostridium symbiosum, 35 kDa (39 kDa in the introduction)
B5 was tested, and the “stoichiometry N” value [7] was 2.

Source: PMC7145394, “Molecular and Low-Resolution Structural Characterization of the Na^+-Translocating Glutaconyl-CoA Decarboxylase From Clostridium symbiosum” (Frontiers in Microbiology, 2020)
